Some targets named below: MST3 (Homo sapiens, UniProt Q9Y6E0); MEKK1 (Homo sapiens, UniProt Q13233); HIPK3 (Homo sapiens, UniProt Q9H422); CDK2-Cyclin A (Homo sapiens, UniProt P24941); SYK (Homo sapiens, UniProt P43405); HER4 (Homo sapiens, UniProt Q15303); GSK3b (Homo sapiens, UniProt P49841).
What all share (assay): Kinase panel residual activity
Common to all, as to format: biochemical
What all share (settings): compound at 1 micromolar

In a further series the target is T1, EPH-B1 (Homo sapiens, UniProt P54762).
T1 sequence (P54762 18-984): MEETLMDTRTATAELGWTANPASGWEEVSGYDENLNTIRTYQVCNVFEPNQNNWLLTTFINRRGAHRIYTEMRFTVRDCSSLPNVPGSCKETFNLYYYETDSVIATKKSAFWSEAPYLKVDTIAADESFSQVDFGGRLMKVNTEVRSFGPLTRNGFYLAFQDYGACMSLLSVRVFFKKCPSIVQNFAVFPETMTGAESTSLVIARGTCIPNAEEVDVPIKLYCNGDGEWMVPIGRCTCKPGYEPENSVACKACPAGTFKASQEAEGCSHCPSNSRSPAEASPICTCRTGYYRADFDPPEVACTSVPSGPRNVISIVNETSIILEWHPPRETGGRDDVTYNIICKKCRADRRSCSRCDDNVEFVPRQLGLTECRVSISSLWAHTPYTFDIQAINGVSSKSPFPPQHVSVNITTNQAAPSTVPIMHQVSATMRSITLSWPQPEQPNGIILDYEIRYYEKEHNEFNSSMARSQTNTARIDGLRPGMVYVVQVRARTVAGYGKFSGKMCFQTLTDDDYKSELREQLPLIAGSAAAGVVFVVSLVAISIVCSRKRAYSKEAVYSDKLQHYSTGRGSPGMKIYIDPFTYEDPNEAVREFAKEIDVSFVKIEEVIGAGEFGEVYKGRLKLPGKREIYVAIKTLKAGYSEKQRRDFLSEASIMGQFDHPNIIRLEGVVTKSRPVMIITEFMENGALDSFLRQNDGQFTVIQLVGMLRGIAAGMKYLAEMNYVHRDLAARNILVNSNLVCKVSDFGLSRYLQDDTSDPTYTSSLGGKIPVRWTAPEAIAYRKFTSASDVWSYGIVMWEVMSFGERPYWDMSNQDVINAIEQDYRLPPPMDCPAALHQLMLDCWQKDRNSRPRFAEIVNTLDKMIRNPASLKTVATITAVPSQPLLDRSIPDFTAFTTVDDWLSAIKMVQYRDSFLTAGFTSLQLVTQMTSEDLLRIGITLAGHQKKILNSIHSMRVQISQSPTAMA

Another series has as its target T2, LKB1 (Homo sapiens, UniProt Q15831).
T2 sequence (Q15831 1-433): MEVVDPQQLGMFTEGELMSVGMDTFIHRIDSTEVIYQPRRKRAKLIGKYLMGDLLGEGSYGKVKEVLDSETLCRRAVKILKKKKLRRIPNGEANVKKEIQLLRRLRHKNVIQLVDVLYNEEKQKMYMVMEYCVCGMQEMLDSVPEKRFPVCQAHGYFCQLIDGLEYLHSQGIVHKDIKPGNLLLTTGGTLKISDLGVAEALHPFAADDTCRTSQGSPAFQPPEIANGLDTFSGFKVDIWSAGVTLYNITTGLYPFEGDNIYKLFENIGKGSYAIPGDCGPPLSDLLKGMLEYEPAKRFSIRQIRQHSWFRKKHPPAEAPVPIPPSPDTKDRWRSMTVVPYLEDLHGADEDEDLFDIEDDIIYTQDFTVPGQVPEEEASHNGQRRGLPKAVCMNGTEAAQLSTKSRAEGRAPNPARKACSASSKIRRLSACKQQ
T2 sequence (Q7RTN6 1-431 partner): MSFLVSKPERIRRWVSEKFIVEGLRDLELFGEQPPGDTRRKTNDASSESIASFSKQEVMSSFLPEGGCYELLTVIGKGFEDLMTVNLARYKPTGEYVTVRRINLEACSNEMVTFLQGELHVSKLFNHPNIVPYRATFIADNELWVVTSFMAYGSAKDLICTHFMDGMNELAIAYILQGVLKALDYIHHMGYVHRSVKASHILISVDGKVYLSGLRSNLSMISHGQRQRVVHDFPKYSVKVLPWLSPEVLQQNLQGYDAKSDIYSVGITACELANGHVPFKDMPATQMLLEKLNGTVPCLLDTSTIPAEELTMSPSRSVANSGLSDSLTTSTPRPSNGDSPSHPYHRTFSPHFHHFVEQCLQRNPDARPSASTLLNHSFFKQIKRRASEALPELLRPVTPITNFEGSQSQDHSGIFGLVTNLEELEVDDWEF
T2 sequence (Q9Y376 1-341 partner): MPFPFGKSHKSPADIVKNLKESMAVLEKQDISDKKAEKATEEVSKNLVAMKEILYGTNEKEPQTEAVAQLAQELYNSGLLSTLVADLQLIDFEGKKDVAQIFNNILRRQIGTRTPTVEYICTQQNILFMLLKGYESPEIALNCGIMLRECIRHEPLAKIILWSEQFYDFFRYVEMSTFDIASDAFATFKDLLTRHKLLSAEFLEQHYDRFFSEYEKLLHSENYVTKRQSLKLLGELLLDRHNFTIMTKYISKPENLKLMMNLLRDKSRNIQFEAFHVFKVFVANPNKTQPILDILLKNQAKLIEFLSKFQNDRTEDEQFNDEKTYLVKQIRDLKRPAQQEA

The target in the next series is T3, Aurora A (Homo sapiens, UniProt O14965).
T3 sequence (O14965 1-403): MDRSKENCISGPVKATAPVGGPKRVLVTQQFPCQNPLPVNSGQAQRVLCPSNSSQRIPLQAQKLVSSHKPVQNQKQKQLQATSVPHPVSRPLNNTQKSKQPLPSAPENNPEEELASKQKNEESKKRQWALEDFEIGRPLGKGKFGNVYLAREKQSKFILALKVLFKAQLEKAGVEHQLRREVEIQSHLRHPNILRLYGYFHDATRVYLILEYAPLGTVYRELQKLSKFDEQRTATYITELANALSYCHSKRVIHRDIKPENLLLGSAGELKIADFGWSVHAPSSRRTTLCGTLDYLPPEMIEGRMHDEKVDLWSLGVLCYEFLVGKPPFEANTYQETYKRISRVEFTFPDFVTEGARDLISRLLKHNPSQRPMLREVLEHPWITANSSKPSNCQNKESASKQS

Structures are written as SMILES. Where a SMILES comes first, the peptide text is derived from it. [ ]: non-standard residue; d: D form. The star is where a group is joined. X1 = O=C(CCCCCCCn1cnc2c(Br)c(Br)c(Br)c(Br)c21)*

What is called remaining activity is the signal under treatment as a percentage of the control signal.

MST3, sequence (Q9Y6E0 whole entry, species assumed): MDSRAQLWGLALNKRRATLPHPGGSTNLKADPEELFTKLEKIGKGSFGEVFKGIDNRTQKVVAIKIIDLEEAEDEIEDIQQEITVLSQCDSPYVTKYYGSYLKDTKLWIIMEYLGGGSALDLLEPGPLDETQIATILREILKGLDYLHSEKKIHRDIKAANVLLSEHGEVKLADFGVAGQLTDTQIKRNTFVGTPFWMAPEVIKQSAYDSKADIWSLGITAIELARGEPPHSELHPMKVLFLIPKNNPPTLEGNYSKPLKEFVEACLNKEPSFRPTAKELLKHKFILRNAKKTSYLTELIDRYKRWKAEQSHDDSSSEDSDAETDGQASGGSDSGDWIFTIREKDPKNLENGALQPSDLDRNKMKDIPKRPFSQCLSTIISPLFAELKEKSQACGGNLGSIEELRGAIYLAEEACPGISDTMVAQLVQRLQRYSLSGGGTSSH
MEKK1, sequence (Q13233 whole entry, species assumed): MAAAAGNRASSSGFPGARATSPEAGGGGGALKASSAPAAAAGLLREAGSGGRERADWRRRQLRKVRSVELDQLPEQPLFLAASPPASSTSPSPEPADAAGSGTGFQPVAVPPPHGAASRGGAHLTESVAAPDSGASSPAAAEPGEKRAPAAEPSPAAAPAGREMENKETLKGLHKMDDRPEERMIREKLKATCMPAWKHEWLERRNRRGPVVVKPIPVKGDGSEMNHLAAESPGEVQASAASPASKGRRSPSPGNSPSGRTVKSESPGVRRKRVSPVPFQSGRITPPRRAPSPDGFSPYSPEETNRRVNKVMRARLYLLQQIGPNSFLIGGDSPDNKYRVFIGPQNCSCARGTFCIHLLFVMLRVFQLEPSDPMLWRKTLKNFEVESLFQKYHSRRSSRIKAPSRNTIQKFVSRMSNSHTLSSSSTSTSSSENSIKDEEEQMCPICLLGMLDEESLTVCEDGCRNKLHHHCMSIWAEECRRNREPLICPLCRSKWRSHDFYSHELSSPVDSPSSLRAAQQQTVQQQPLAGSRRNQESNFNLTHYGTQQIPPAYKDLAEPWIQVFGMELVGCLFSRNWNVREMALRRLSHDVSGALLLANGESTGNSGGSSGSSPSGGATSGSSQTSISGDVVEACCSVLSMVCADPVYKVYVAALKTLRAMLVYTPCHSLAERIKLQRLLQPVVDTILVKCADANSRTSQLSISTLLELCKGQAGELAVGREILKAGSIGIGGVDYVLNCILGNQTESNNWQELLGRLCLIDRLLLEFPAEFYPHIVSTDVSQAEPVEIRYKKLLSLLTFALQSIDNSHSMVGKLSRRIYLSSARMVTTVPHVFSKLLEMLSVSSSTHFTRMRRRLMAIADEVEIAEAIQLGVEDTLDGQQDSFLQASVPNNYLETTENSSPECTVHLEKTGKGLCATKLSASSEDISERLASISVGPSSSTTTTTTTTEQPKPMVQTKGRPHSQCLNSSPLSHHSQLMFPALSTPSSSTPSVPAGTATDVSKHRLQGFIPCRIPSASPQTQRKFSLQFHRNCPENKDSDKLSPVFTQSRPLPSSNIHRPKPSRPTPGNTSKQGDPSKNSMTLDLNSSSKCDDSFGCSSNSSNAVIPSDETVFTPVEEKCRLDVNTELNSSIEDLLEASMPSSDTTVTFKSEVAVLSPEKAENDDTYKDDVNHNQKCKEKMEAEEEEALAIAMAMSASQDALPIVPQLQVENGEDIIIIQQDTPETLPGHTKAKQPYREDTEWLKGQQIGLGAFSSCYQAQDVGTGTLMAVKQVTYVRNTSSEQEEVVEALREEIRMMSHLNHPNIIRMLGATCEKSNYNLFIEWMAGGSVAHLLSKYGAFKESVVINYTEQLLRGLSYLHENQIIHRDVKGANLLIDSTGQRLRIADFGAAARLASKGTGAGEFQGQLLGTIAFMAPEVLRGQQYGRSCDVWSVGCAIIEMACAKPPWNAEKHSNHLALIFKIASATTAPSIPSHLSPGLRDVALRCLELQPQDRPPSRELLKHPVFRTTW
HIPK3, sequence (Q9H422 whole entry, species assumed): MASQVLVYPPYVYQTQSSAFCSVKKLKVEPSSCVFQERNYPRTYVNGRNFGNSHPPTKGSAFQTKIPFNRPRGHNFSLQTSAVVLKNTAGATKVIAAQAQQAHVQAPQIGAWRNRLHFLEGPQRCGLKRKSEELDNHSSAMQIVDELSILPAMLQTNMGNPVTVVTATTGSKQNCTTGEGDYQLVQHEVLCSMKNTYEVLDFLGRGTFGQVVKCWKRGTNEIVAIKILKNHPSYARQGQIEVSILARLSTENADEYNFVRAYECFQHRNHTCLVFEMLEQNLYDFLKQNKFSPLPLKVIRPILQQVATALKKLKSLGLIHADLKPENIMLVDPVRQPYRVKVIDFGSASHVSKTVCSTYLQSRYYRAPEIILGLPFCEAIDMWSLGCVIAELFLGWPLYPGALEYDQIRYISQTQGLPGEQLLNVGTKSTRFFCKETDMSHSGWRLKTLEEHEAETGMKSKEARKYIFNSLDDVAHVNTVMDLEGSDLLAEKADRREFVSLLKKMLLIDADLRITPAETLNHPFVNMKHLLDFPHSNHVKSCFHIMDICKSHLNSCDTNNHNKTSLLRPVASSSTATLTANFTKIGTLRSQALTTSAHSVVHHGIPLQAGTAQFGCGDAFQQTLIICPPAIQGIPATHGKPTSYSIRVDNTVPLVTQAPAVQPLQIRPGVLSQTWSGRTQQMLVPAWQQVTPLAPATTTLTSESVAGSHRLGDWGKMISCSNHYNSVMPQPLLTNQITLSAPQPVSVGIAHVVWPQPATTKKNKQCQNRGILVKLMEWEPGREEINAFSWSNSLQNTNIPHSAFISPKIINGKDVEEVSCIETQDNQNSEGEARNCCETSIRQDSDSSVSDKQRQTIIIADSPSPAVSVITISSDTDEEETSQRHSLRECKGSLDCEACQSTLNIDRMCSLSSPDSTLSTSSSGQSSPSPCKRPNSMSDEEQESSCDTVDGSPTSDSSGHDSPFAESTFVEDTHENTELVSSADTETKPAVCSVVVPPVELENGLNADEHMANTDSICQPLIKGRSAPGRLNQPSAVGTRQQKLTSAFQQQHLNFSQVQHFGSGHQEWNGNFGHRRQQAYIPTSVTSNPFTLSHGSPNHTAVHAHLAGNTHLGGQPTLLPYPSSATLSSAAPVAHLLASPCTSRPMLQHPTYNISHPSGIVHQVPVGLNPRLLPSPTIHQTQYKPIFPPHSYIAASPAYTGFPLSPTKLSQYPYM
GSK3b, sequence (P49841 whole entry, species assumed): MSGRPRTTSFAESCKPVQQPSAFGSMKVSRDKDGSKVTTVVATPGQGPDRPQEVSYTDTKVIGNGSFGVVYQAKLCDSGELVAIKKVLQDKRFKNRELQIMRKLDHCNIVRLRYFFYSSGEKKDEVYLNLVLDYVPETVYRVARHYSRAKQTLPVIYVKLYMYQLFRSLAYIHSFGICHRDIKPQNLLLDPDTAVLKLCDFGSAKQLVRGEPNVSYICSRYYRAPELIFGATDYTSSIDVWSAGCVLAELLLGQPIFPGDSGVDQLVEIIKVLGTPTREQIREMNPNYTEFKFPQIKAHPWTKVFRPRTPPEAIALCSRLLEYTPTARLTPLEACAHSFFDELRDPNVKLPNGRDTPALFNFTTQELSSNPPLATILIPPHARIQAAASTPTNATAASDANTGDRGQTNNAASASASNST
HER4, sequence (Q15303 26-1308, species assumed): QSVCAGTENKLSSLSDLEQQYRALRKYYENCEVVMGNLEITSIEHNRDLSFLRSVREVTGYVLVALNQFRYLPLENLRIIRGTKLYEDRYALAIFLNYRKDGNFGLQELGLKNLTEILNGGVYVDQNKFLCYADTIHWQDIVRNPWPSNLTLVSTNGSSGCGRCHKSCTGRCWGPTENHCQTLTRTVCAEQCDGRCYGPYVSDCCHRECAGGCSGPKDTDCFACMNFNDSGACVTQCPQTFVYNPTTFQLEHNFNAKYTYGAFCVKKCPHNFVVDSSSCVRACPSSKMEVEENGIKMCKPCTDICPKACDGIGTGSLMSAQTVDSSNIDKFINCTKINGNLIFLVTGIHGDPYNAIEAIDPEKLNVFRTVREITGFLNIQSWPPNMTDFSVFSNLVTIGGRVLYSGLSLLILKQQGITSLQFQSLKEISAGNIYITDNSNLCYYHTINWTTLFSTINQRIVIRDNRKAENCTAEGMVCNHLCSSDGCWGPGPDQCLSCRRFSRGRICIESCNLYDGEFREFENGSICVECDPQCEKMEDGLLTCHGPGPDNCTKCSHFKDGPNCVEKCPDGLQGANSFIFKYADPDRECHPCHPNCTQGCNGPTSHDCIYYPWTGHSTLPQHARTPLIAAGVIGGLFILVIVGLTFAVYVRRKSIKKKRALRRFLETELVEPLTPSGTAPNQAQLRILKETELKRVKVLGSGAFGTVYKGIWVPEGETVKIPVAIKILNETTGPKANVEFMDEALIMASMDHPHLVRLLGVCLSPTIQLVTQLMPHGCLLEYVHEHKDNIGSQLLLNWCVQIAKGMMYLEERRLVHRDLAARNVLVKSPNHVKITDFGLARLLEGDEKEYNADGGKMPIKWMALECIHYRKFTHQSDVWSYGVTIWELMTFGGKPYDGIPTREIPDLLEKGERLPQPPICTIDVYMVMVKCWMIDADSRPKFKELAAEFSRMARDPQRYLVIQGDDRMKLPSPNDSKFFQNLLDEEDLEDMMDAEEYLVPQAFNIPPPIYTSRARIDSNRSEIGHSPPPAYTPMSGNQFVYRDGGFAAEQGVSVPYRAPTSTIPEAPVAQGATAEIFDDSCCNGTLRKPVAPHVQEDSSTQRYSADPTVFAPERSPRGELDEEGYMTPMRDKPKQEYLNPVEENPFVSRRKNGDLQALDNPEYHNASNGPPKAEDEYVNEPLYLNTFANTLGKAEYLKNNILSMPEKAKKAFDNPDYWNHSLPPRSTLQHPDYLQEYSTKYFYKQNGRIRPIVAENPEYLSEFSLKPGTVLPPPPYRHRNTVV

Take `NCCCC[C@H](NC(=O)[C@H](CC(=O)O)NC(=O)[C@H](CC(=O)O)NC(=O)[C@H](CC(=O)O)NC(=O)[C@H](CC(=O)O)NC(=O)[C@H](CC(=O)O)NC(=O)[C@@H](CC(=O)O)NC(=O)CCCCCCCn1cnc2c(Br)c(Br)c(Br)c(Br)c21)C(=O)O` [TBBI-OcA-(D-Asp)-(L-Asp)5-(L-Lys)-OH] (X1-[dD]DDDDDK-OH): the remaining activity at 1 µM with MST3 amounted to 100%; with MEKK1, 95%; in the series with HIPK3 it was 75%; in the series with EPH-B1, 102%; with LKB1, 96%; with CDK2-Cyclin A it was 64%. In addition, the remaining activity at 1 µM in the series with SYK was found to be 100%; with HER4, 103%; with Aurora A, 118%; with GSK3b, 46%.

Source of the values: patent publication US9176064B2, “Bisubstrate fluorescent probes for protein kinase CK2” (University of Tartu, priority 2012, dated 2015).
